Data on six molecules can be found in patent publication US20160347802A1.

The target in experiment [1] is biotinylated recombinant human DCC (human) (UniProt P43146). Description: AVEXIS, prey on bait DCC; white = No binding.
The target in experiment [2] is T1, human DRAXIN, AVEXIS prey or bait protein (human), Q8NBI3.
T1 chain: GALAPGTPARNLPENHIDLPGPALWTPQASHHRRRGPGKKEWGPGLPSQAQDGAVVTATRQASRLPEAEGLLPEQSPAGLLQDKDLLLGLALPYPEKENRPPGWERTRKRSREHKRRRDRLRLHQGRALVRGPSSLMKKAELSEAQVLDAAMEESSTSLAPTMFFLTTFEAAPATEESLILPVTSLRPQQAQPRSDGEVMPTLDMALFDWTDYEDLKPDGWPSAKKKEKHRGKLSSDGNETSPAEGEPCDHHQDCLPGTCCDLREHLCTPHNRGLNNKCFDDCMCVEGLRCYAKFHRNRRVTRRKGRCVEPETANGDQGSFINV
Description: AVEXIS, prey on bait DRAXIN; white = No binding. As to conditions: remark: other sources report otherwise.

In experiment [3] the target is T1, human DRAXIN, AVEXIS prey or bait …. Description: AVEXIS, prey on bait hDRAXIN, lower value; white = No binding. As to conditions: remark: other sources report otherwise.
Experiment [4] has the same target. Put plainly: AVEXIS, prey on bait hDRAXIN, upper value; white = No binding. Particulars: remark: other sources report otherwise.

B1: human Netrin-G2, AVEXIS protein (ligand, UniProt Q96CW9 18-507, looked up, not shown: small tags and cut ends)
chain: DYDICKSWVTTDEGPTWEFYACQPKVMRLKDYVKVKVEPSGITCGDPPERFCSHENPYLCSNECDASNPDLAHPPRLMFDKEEEGLATYWQSITWSRYPSPLEANITLSWNKTVELTDDVVMTFEYGRPTVMVLEKSLDNGRTWQPYQFYAEDCMEAFGMSARRARDMSSSSAHRVLCTEEYSRWAGSKKEKHVRFEVRDRFAIFAGPDLRNMDNLYTRLESAKGLKEFFTLTDLRMRLLRPALGGTYVQRENLYKYFYAISNIEVIGRCKCNLHANLCSMREGSLQCECEHNTTGPDCGKCKKNFRTRSWRAGSYLPLPHGSPNACATAGSFGNCECYGHSNRCSYIDFLNVVTCVSCKHNTRGQHCQHCRLGYYRNGSAELDDENVCIECNCNQIGSVHDRCNETGFCECREGAAGPKCDDCLPTHYWRQGCYPNVCDDDQLLCQNGGTCLQNQRCACPRGYTGVRCEQPRCDPADDDGGLDCDRAPG
In the case of B1, the A486nm in experiment [1] stood at 0.065.
On the same count and under the same terms, under EVMPTLDMALFDWTDYEDLKP (peptide, not shown: small tags and cut ends) [human DRAXIN 21 amino acid Netrin binding fragment, AVEXIS prey or bait protein] stands 0.06.

B2: human DRAXIN, AVEXIS prey or bait protein, Q8NBI3 26-349 (ligand)
chain: GALAPGTPARNLPENHIDLPGPALWTPQASHHRRRGPGKKEWGPGLPSQAQDGAVVTATRQASRLPEAEGLLPEQSPAGLLQDKDLLLGLALPYPEKENRPPGWERTRKRSREHKRRRDRLRLHQGRALVRGPSSLMKKAELSEAQVLDAAMEESSTSLAPTMFFLTTFEAAPATEESLILPVTSLRPQQAQPRSDGEVMPTLDMALFDWTDYEDLKPDGWPSAKKKEKHRGKLSSDGNETSPAEGEPCDHHQDCLPGTCCDLREHLCTPHNRGLNNKCFDDCMCVEGLRCYAKFHRNRRVTRRKGRCVEPETANGDQGSFINV
For B2, the A486nm turned out to be 0.062 in experiment [2], 0.057 in experiment [3] and 0.054 in experiment [4].

B3: human DRAXIN, AVEXIS prey or bait protein (ligand)
chain: GALAPGTPARNLPENHIDLPGPALWTPQASHHRRRGPGKKEWGPGLPSQAQDGAVVTATRQASRLPEAEGLLPEQSPAGLLQDKDLLLGLALPYPEKENRPPGWERTRKRSREHKRRRDRLRLHQGRALVRGPSSLMKKAELSEAQVLDAAMEESSTSLAPTMFFLTTFEAAPATEESLILPVTSLRPQQAQPRSDGEVMPTLDMALFDWTDYEDLKPDGWPSAKKKEKHRGKLSSDGNETSPAEGEPCDHHQDCLPGTCCDLREHLCTPHNRGLNNKCFDDCMCVEGLRCYAKFHRNRRVTRRKGRCVEPETANGDQGSFINV
On to B3, for which the A486nm in experiment [1] was found to be 0.072.

B4: human Netrin-G1, AVEXIS protein (ligand, UniProt Q9Y2I2 29-510, looked up, not shown: small tags and cut ends)
chain: HYDLCKTQIYTEEGKVWDYMACQPESTDMTKYLKVKLDPPDITCGDPPETFCAMGNPYMCNNECDASTPELAHPPELMFDFEGRHPSTFWQSATWKEYPKPLQVNITLSWSKTIELTDNIVITFESGRPDQMILEKSLDYGRTWQPYQYYATDCLDAFHMDPKSVKDLSQHTVLEIICTEEYSTGYTTNSKIIHFEIKDRFAFFAGPRLRNMASLYGQLDTTKKLRDFFTVTDLRIRLLRPAVGEIFVDELHLARYFYAISDIKVRGRCKCNLHATVCVYDNSKLTCECEHNTTGPDCGKCKKNYQGRPWSPGSYLPIPKGTANTCIPSISSIGNCECFGHSNRCSYIDLLNTVICVSCKHNTRGQHCELCRLGYFRNASAQLDDENVCIECYCNPLGSIHDRCNGSGFCECKTGTTGPKCDECLPGNSWHYGCQPNVCDNELLHCQNGGTCHNNVRCLCPAAYTGILCEKLRCEEAGSCGS
As for B4, in experiment [1], the A486nm was 0.063.

B5: human Netrin-4, AVEXIS protein (ligand, UniProt Q9HB63 19-628, looked up, not shown: small tags and cut ends)
chain: GLSGVAGVSSRCEKACNPRMGNLALGRKLWADTTCGQNATELYCFYSENTDLTCRQPKCDKCNAAYPHLAHLPSAMADSSFRFPRTWWQSAEDVHREKIQLDLEAEFYFTHLIVMFKSPRPAAMVLDRSQDFGKTWKPYKYFATNCSATFGLEDDVVKKGAICTSKYSSPFPCTGGEVIFKALSPPYDTENPYSAKVQEQLKITNLRVQLLKRQSCPCQRNDLNEEPQHFTHYAIYDFIVKGSCFCNGHADQCIPVHGFRPVKAPGTFHMVHGKCMCKHNTAGSHCQHCAPLYNDRPWEAADGKTGAPNECRTCKCNGHADTCHFDVNVWEASGNRSGGVCDDCQHNTEGQYCQRCKPGFYRDLRRPFSAPDACKPCSCHPVGSAVLPANSVTFCDPSNGDCPCKPGVAGRRCDRCMVGYWGFGDYGCRPCDCAGSCDPITGDCISSHTDIDWYHEVPDFRPVHNKSEPAWEWEDAQGFSALLHSGKCECKEQTLGNAKAFCGMKYSYVLKIKILSAHDKGTHVEVNVKIKKVLKSTKLKIFRGKRTLYPESWTDRGCTCPILNPGLEYLVAGHEDIRTGKLIVNMKSFVQHWKPSLGRKVMDILKRECK
Turning to B5, the A486nm in experiment [1] is 0.065.
